Test results from PMC4282830.

Target: guanidine hydrochloride denatured vitamin D binding protein (human) (UniProt P02774)
Experiment: covalent complex formation, reducing SDS-PAGE and immunoblot

Chain of UniProt P02774 (P02774 17-474): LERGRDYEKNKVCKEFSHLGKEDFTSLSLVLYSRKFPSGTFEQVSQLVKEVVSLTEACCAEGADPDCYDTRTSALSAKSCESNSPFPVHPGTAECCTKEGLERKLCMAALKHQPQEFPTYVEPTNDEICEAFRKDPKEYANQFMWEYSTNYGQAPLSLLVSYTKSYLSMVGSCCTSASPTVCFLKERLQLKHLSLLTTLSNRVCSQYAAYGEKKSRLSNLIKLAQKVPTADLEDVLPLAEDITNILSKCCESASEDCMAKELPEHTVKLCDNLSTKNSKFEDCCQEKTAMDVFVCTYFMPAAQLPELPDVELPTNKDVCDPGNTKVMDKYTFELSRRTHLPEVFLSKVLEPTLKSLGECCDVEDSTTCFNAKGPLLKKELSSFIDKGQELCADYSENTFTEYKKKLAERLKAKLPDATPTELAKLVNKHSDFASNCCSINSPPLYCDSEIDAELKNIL

- fold increase in intensity of the C3b:DBP band, denatured versus native DBP: 5 fold
Substance: complement C3b (natural protein)
